Assay results published in US20210009693A1 (MABSPACE BIOSCIENCES SUZHOU, published 2021).
Positions count from the first letter of the chain named. Like-named read-outs stand apart in the source and are kept apart here. Each block holds one binder with its values, some of them ahead of it.

Columns and labels:
[1] = target: hPD-L1 (antigen of the Biacore assay) (human, UniProt Q9NZQ7 19-238, limits assumed); assay: SPR (Biacore), antibody captured on anti-human Fc, antigen in flow
Protocol: A CM5 sensor chip was activated in each flow cell by 7-min injection (10 μl/min) of freshly prepared 1:1 50 mM N-hydroxysuccinimide (NHS): 200 mM 1-ethyl-3-(3-dimethylaminopropyl)-carbodiimide (EDC). Then anti-human Fc antibody (GE Healthcare) in a concentration of 10 μg/ml in 10 mM sodium acetate buffer PH 5.0 was injected onto the activated chip at 10 μl/min (HBS-EP running buffer: 10 mM HEPES, 150 mM NaCl, 3.4 mM EDTA, 0.005% surfactant P20, pH 7.4). The remaining active coupling sites were blocked by 7 min injection of 1M ethanolamine at 10 μl/min. The immobilization level of each flow cell is ˜9000RU. Antibodies were captured in FC2 by anti-human Fe IgG (GE Healthcare) to 200˜300RU. FC1 was used as the reference cell. Antigen was injected at varying concentrations after capture of antibody. The association time for antibody binding antigen is 180s. Surface Regeneration condition is 120s at 10 μl/min in Gly pH1.5. The signals with captured antibody subtracted from those without captured antibody were calculated with Biacore X100 evaluation software ver. 2.0 (Biacore).

[2] = target: T1, Human PD-L1/CD274 with C-Fc Tag (hPD-L1-Fc) (human, UniProt Q9NZQ7 19-238); assay: blocking ELISA on coated hPD-L1-Fc; blocked ligand: biotinylated hPD-1-N297A
T1 construct: range 19-238; ACRO Biosystem PD1-H5258, made in HEK293; also called human PD-L1-Fc; not shown: Fc fragment of human IgG1 at C-terminus
T1 sequence (Q9NZQ7 19-238 limits assumed): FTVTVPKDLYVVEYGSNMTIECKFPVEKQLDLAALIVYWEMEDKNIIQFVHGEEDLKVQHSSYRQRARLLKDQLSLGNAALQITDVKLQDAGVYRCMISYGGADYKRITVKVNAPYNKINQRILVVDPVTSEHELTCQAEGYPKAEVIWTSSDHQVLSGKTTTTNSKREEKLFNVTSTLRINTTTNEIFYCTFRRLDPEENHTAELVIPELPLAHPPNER
Protocol: High-binding clear polystyrene 96 well plates (Nunc) were coated with 100 μl/well of coating solution consisting of 1 μg/ml hPD-L1-Fc overnight at 4° C. Then the plates were washed once on an automatic plate washer using washing buffer (PBS+0.1% Tween 20 (Sigma)). 200 μl of blocking buffer (PBS+1% BSA+1% normal goat serum+0.05% Tween-20) was added to each well and incubated 2 hours at room temp. […] The plates were then washed 3 times using the method described above. […] After the plates were washed 3 times, 100 μl/well of a solution of 1:5000 diluted HRP conjugated Neutravidin antibody (Pierce) in dilution buffer was then added to each well of the plate. After that the ELISA plates were allowed to incubate for 60 min at RT, then the plates were washed 3 times with 250 μl/well washing buffer. Finally, 100 μl/well of TMB was added to each well and the reaction was terminated using 0.64M H₂SO₄. The plates were read on a Thermo Multiscan FC at 450 nM (see FIG. 18A to 18D).

[3] = target: T2, wild type human PD-L1-Fc protein (SEQ ID NO: 107) (human); assay: ELISA on captured PD-L1-Fc, as in Example 18A
T2 construct: Extracellular human PD-L1 (amino acid 19-238) with Fc fragment of human IgG1, expressed in 293T cells and used as culture supernatant; also called WT PD-L1; wild-type PD-L1
T2 sequence (chain, as listed by the source limits assumed): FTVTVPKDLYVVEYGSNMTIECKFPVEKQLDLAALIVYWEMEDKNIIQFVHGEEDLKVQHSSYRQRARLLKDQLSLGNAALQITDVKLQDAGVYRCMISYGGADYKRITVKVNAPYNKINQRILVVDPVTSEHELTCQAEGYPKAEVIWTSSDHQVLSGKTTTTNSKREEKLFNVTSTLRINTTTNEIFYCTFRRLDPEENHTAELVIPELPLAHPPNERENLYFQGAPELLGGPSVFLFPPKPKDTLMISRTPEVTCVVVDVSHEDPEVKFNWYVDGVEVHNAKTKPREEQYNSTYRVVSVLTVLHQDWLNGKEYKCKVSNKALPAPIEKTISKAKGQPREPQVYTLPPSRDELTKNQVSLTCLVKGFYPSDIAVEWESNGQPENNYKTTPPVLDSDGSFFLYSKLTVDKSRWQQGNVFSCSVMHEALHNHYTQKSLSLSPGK

[4] = target: T3, human PD-L1-Fc mutant E58A (human); assay: ELISA on captured PD-L1-Fc, as in Example 18A
T3 construct: Position 58 counts on native human PD-L1 (NP_054862.1); also called E58A mutant
T3 sequence (chain, as listed by the source E58A E58A limits assumed): as the sequence (chain, as listed by the source limits assumed) above, with E40A counted along it

[5] = target: T4, Recombinant Mouse PD-L1/CD274 Protein (mPD-L1-his) (mouse, UniProt Q9EP73 19-238); assay: ELISA, 20 ug/ml antibody on coated mouse PD-L1 (his-tagged per text, mPD-L1-Fc per sheet title)
T4 construct: range 19-238; ACRO Biosystem PD1-M5220; also called mouse PD-L1-his
T4 sequence (Q9EP73 other isoform, or with tags, fused parts or gaps limits assumed): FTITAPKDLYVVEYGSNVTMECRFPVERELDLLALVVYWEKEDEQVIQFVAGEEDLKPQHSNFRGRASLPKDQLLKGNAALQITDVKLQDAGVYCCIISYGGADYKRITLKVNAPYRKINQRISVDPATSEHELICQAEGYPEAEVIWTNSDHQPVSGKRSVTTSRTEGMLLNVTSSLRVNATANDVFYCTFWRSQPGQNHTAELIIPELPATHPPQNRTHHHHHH
Protocol: High-binding clear polystyrene 96 well plates (Nunc) were coated with 100 μl/well of 1 μg/ml mouse PD-L1-his in high pH coating buffer and incubated overnight at 4° C. Then plates were washed once on an automatic plate washer using washing buffer (PBS+0.1% Tween 20 (Sigma)). 200 μl of blocking buffer (PBS+1% BSA+1% normal goat serum+0.05% Tween-20) was added to each well and incubated for 2 hours at room temp. Then add 20 μg/ml purified hybridoma mouse antibodies in dilution buffer (PBS+1% BSA+1% normal goat serum+0.01% Tween-20) and incubate for 1 hour at RT. The plates were then washed 3 times with 250 μl/well washing buffer. 100 μl/well of a solution of HRP conjugated goat anti-mouse Fc antibody (Abcam) in dilution buffer was then added to each well of the plate. After that the ELISA plates were allowed to incubate for 60 min at RT then plates were washed 3 times with 250 μl/well washing buffer. Finally, 100 μl/well of TMB was added to each well and the reaction was terminated using 0.64M H₂SO₄. The plates were read on a Thermo Multiscan FC at 450 nM (see FIG. 6F).

[6] = target: T5, Recombinant Human PD-L1/CD274 Protein (hPD-L1-his) (human, UniProt Q9NZQ7 19-238); assay: ELISA on coated hPD-L1-his
T5 construct: range 19-238; ACRO Biosystem PD1-H5229, made in HEK293; also called human PD-L1-his; hPD-L-his
T5 sequence (Q9NZQ7 other isoform, or with tags, fused parts or gaps limits assumed): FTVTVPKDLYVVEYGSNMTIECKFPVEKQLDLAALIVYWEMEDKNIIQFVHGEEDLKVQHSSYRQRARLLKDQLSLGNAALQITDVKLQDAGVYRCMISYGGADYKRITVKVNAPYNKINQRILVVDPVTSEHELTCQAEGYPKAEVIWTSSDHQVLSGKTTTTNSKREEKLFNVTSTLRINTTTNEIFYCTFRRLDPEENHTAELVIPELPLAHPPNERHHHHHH

hPD-L2-Fc = target: T6, hPD-L2-Fc (human, UniProt Q9BQ51 20-219); assay: ELISA, plate coated with hPD-L2-Fc
T6 construct: Acrobiosystems PD2-H5251; also called human PD-L2 protein; not shown: Fc tag
T6 sequence (looked up): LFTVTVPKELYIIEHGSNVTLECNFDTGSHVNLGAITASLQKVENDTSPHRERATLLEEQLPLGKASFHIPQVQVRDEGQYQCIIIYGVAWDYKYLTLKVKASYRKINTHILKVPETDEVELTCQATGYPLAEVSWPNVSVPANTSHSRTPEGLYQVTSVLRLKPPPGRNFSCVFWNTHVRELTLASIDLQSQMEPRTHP
Protocol: Briefly, high-binding clear polystyrene 96 well plates (Nunc) were coated with 100 μl/well of a 0.5 μg/ml human PD-L1-Fc (Acrobiosystems, Cat #PD1-H5258) or 100 μl/well of a 1 μg/ml hPD-L2-Fc (Acrobiosystems, Cat #PD2-H5251), respectively, in high pH coating buffer (0.16% Na2CO3+0.3% NaHCO₃, pH 9.8) and incubated overnight at 4° C. Then the plates were washed once on an automatic plate washer using washing buffer (PBS+0.1% Tween 20 (Amresco)). 200 μl of blocking buffer (PBS+1% BSA+1% normal goat serum+0.05% Tween-20) was added to each well and incubated for 2 hours at room temp. Then add 100 μl 2 μg/ml purified PD-L1 antibodies with dilution buffer (PBS+1% BSA+1% normal goat serum+0.01% Tween-20) and incubate for 1 hour at RT. The plates were then washed 3 times with washing buffer. 100 μl/well of a solution of HRP conjugated goat anti-mouse IgG antibody (1:20000, Abcam) in dilution buffer was then added to each well of the plate. After that the ELISA plates were allowed to incubate for 60 min at RT then the plates were washed 3 times with 250 μl/well washing buffer. Finally, 100 μl/well of TMB was added to each well for 15 min and the reaction was terminated using 50 ul/well of 0.16 M/L sulfuric acid. The plates were read on a Thermo Multiscan FC at 450 nM (see FIG. 6G).

[7] = target: T5, Recombinant Human PD-L1/CD274 Protein …; assay: ELISA on coated hPD-L1-his; remark: listed apart in the source

Sequence of hPD-L1 (antigen of the Biacore assay) (Q9NZQ7 19-238 limits assumed): as the sequence (Q9NZQ7 19-238 limits assumed) above

IC50 (read off the curve) [2]: ~0.04 µg/mL
B2: 4B6-H4L4 (antibody, V domains shown)
VH: QVQLVQSGAEVKKPGASVKVSCKASGYVFTDYYMNWVRQAPGQGLEWIGDINPNNGGTSYNQKFQGRVTVTVDTSIRTAYMELSRLRSDDTAVYYCVKWGDGPFAYWGQGTLVTVSS
VL: DIQMTQSPSSLSASVGDRVTITCQASQNVGAAVAWYQQKPGKAPKLLIYSASNLYTGVPSRFSGSGSGTDFTLTISSLQPEDIATYFCQQYSNYPTFGSGTKLGIK
notes: produced in 293 cells; light chain constant region not described; also called humanized 4B6 H4L4

Kd [1]: 11.3 nM
koff [1]: 0.00515 s⁻¹
kon [1]: 450000 M⁻¹ s⁻¹
B4: 18G4-chimeric (antibody, V domains shown)
VH: QVQLQQPGTALVKPGASVKLSCKASGYTFSSYYIHWVKQRPGQGLEWIGNINPFNGGSIYNEKFKNKASLTVDTSSNTAYMQLSSLTSEDSAVYYCARWHFDYWGQGTSLTVSS
VL: DIVMTQSPSSLAVTAGEKVTLKCKSSQSLLWSGNQNNYLSWYQQKQGQPPKLLIYGASIRESWVPDRFTGSGSGTDFTLTIGNVSAEDLAVYYCQHNHGSFLPYTFGGGTRLEIK
notes: Mouse variable regions fused to a human IgG1 constant region

EC50 (read off the curve) [6]: ~0.002 µg/mL
IC50 (read off the curve) [2]: ~0.04 µg/mL
B5: 23F11-H4L6 (antibody, V domains shown)
VH: QVQLVQSGAEVKKPGASVKLSCKASGYIFTTYWMHWVKQRPGQGLEWIGMIQPNSGGTKYNEKFKKKATLTVDKSISTAYMELSRLTSDDTAVYYCARGAGTVDYFDYWGQGSTLTVSS
VL: DIVLTQSPASLAVSVGQRATITCRASESVDIYGNSFMHWYQQKPGQPPKLLIYRASNLESGIPARFSGSGSRTDFTLTINPVEANDTATYYCHQSTEDPYTFGGGTKLEIK
notes: produced in 293 cells; light chain constant region not described; also called humanized 23F11 H4L6

binding result (hPD-L2-Fc): no binding (tested: 2 ug/ml)
binding result [5]: no binding (tested: 20 ug/ml)
B6: 23A11 (antibody, V domains shown)
VH: LVQLQQPGAELVKPGASVKLSCKASGYIFTTYWIHWVKQRPGQGLEWIGMIQPNSGGTKYNDQFKNRATLTVDKSSTTASMQLSGLTSEDSAVYYCARGAGTVDYFDYWGQGTTLSISS
VL: B5 VL with A12T, V15L, T22S, P47S, N85D, T87V, T96N, E97D, I110T
notes: also called mouse monoclonal antibody 23A11; clone 23A11

EC50 (read off the curve) [6]: ~0.004 µg/mL
IC50 (read off the curve) [2]: ~0.05 µg/mL
B9: 23F11-H6L6 (antibody, V domains shown)
VH: B5 VH with L20V, K38R, R40A, K74T, T87R
VL: B5 VL
notes: produced in 293 cells; light chain constant region not described; also called humanized 23F11 H6L6

EC50 (read off the curve) [7]: ~0.002 µg/mL
IC50 (read off the curve) [2]: ~0.05 µg/mL
B11: 23A11-H5L3 (antibody, V domains shown)
VH: LVQLVQSGAEVKKPGASVKVSCKASGYIFTTYWIHWVRQAPGQGLEWIGMIQPNSGGTKYNDQFKNRVTLTVDTSISTAYMELSRLRSDDTAVYYCARGAGTVDYFDYWGQGTTLSISS
VL: B5 VL with P47S, T96N, E97D, I110T
notes: produced in 293 cells; also called humanized 23A11 H5L3

More lines, now with the values behind:

B1: 4B6-H4L3 (antibody, V domains shown)
VH: B2 VH
VL: B2 VL with P8Q, L54R, L78M
notes: Humanized; also called humanized 4B6 H4L3
Kd [1]: 11.3 nM
koff [1]: 0.00148 s⁻¹
kon [1]: 132000 M⁻¹ s⁻¹
IC50 (read off the curve) [2]: ~0.03 µg/mL

B3: 18G4 (antibody, V domains shown)
VH: B4 VH
VL: B4 VL
notes: Mouse monoclonal from hybridoma; also called mouse monoclonal antibody 18G4
Mean OD450 [3]: 1.45 OD450
OD450 nM of sample-1 [3]: 1.56 OD450
OD450 nM of sample-2 [3]: 1.34 OD450
% of binding of Ab to E58A mutant vs. that to WT PD-L1 [4]: 117%
Mean OD450 [4]: 1.7 OD450
OD450 nM of sample-1 [4]: 1.52 OD450
OD450 nM of sample-2 [4]: 1.88 OD450
binding result [5]: binds

B7: 23A11-H3L3 (antibody, V domains shown)
VH: B11 VH with V20L, R38K, A40R, V68A, T74K, R87T
VL: B5 VL with P47S, T96N, E97D, I110T
notes: Humanized; also called humanized 23A11 H3L3
Kd [1]: 74.1 nM
koff [1]: 0.0542 s⁻¹
kon [1]: 732000 M⁻¹ s⁻¹
EC50 (read off the curve) [7]: ~0.002 µg/mL
IC50 (read off the curve) [2]: ~0.07 µg/mL

B8: 23F11-H6L4 (antibody, V domains shown)
VH: B5 VH with L20V, K38R, R40A, K74T, T87R
VL: B5 VL with H93Q
notes: Humanized; also called humanized 23F11 H6L4
EC50 (read off the curve) [6]: ~0.002 µg/mL
Kd [1]: 103 nM
koff [1]: 0.0448 s⁻¹
kon [1]: 435000 M⁻¹ s⁻¹
IC50 (read off the curve) [2]: ~0.04 µg/mL

B10: 23A11-H5L5 (antibody, V domains shown)
VH: B11 VH
VL: B5 VL with P47A, H93Q, T96N, E97D, I110T
notes: produced in 293 cells; also called humanized 23A11 H5L5
EC50 (read off the curve) [7]: ~0.002 µg/mL
IC50 (read off the curve) [2]: ~0.1 µg/mL
